Assay [1] deals with Recombinant Human IL-17A, Sino Biological, 12047-HNAS (human) (UniProt Q16552). Put plainly: cell-based or functional assay.
Assay [2] shares this target. Put plainly: indirect ELISA, human IL-17A coated. (In general: In an ELISA, binding on a coated surface is turned into a signal by an enzyme label.)
The target is the same in assay [3]. Put plainly: indirect ELISA, human IL-17A coated. This is another data set of the same source.
The target is the same in assay [4]. In words: SPR (Biacore), antibody captured by anti-human antibody on the chip, IL-17A as analyte, 1:1 model. For orientation: SPR reads the build-up and loss of mass on a sensor chip optically.

As usually defined, the EC50 is the midpoint of the concentration-response curve. By pKd is commonly meant the Kd on a negative log10 scale, so that one unit is a factor of ten. For orientation: koff means a measure of how fast the partners let go of each other. One may read the kon as the second-order rate constant of association.

pKd: −log10 of the molar value. Where two headings read alike, the source gives them in different places.

Sequence of Recombinant Human IL-17A, Sino Biological, 12047-HNAS (human) (Q16552 24-155 limits assumed, form in doubt): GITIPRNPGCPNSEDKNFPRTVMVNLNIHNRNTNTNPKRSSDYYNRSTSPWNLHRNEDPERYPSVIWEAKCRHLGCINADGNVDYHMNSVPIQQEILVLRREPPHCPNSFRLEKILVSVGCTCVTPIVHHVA

As for “Novartis humanized anti-IL-17 antibody (Novartis mAb)”, in assay [1], the IC50 of IL-6 release by HT1080 cells stimulated with IL-17A and TNFα came to 0.52 µg/mL; the IC80 of IL-6 release by HT1080 cells stimulated with IL-17A and TNFα was 2.11 µg/mL; the IC90 of IL-6 release by HT1080 cells stimulated with IL-17A and TNFα amounted to 4.8 µg/mL. The EC50 in assay [2] was determined as 0.0341 µg/mL. For the same substance, in assay [3], the EC50 came to 0.0329 µg/mL. In addition, in assay [4], the pKd was 9.95, the koff came out at 0.000161 s⁻¹ and the kon stood at 1.46e+06 M⁻¹ s⁻¹.

Source of the values: patent publication US20200071394A1.
